# Measured values published in patent publication US20240376189A1 (University of Pennsylvania, published 2024).
# T1: human C5a (human, UniProt P01031 678-751, biotinylated in the U937/C5aR ligand blocking assay (site not stated))
# T1 construct: also called human antigen; huC5a
# T1 sequence: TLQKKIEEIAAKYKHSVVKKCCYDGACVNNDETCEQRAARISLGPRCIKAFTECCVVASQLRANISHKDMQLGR
# Legend:
# cynomolgus antigen [1] = biological target: T2, cynomolgus antigen (cynomolgus); assay: affinity-ranking ELISA: cynomolgus antigen coated on the plate, normalized scFv periplasmic extract in 3-fold dilutions from 100 nM, anti-c-myc-HRP, OD450
# T2 construct: also called cyno antigen; cynomolgus monkey C5a
# Description: The affinity ranking ELISA was carried out as following: scFv concentrations in PEs were measured by Quantification ELISA using purified scFv sample as a standard. Briefly, anti-His-antibody (Genscript-A00186) were coated on the plates in coating buffer PBS at pH7.4 overnight at 4° C. The next day, plates were blocked with casein in PBS at pH7.4 for 1 hour at 25° C. ScFv containing PEs were diluted 3 fold serial dilutions and then added to the plates. A purified scFv standard sample with known concentration was used as a standard. After incubation at 25° C. for 1 hour and washing 3 times with PBS-T, anti-c-myc-HRP (Bethyl-A190-104P) was added to the wells followed by incubation for 1 hour at 25° C. HRP activity was detected with TMB substrate and the reaction was quenched with 2M HCl. Plates were read at 450 nm.
# The next day, plates were blocked with casein in PBS for 1 hour at 25° C. Normalized scFv containing PEs were diluted using 3 fold serial dilutions starting at 100 nM, added to the plates and incubated at 25° C. for 1 hour. After washing, anti-c-myc-HRP was added to the wells followed by incubation for 1 hour at 25° C. HRP activity was detected with TMB substrate and the reaction was quenched with 2M HCl. Plates were read at 450 nm. Data were fitted into one-site binding equation using GraphPad Prism 5 software.
# human C5a = biological target: T1, human C5a; assay: SPR, scFv captured via anti-c-myc/anti-His, 5 nM human antigen as analyte, 1:1 fit
# cynomolgus antigen [2] = biological target: T2, cynomolgus antigen; assay: SPR, scFv captured via anti-c-myc/anti-His, 60 nM cynomolgus antigen as analyte, 1:1 fit
# Description: The activator was prepared by mixing 400 mM EDC (1-ethyl-3-(3-dimethylaminopropyl) carbodiimide) and 100 mM NHS (N-hydroxysuccinimide) (GE) immediately prior to injection. The CMS sensor chip was activated for 600 s with the mixture at a flow rate of 10 μL/min. Mixture of anti-c-myc and anti his antibodies in 10 mM NaAc (pH 4.5) was then injected to Fc1 and Fc2 of channel 1 to channel 8 for 600 seconds at a flow rate of 10 μL/min. The chip was deactivated by 1 M ethanolamine-HCl (GE) at a flow rate of 10 μL/min for 420 seconds.
# The anti-C5a scFv was diluted to 0.5 μg/ml, the other samples were diluted to 2 μg/ml in running buffer 1×HBS-EP+ (0.01 M HEPES, 0.15 M NaCl, 0.003 M EDTA, 0.05% surfactant P20). […] Diluted TES buffer was injected into channel Fc1 at a flow rate of 10 μL/min for 40 s, diluted scFv was injected into channel Fc2 at a flow rate of 10 μL/min for 40 s. […] 10 mM glycine pH 1.5 as regeneration buffer was injected following every dissociation phase. The chip was regenerated with 10 mM glycine pH 1.5.
# The sensorgrams for reference channel Fc1 and buffer channel were subtracted from the test sensorgrams. Data were fitted by 1:1 kinetic binding model. Molecular weight of 8.4 kDa was used to calculate the molar concentration of the cyno antigen.
Binder,EC50 (read off the curve) (cynomolgus antigen [1]),koff (human C5a),koff (cynomolgus antigen [2])
"13B7 (scFv, V domains shown, Combination mutant scFv) VH: QVQLVQSGAEVKKPGSSVKVSCKASGYTFTDHIIHWMRQAPGQGLEWMGYIYPREGWTNYNENFKGRVTITADKSTSTAYMELSSLRSEDTAVYYCARERNLEYFDYWGQGTTVTVSS VL: DIVLTQSPASLAVSPGQRATITCKASQSVDYEGFNYMNWYQQKPGQPPKLLIYAASNLDSGVPARFSGSGSGTDFTLTINPVEAEDTANYYCQQSVEDPHTFGGGTKVEIK",~6 nM,< 1e-05 s⁻¹,0.000252 s⁻¹
"17D2 (scFv, V domains shown, Combination mutant scFv) VH: QVQLVQSGAEVKKPGSSVKVSCKASGYTFTDHIIHWMRQAPGQGLEWMGYIYPREGWTNYNENFKGRVTITADKSTSTAYMELSSLRSEDTAVYYCARERNLEYFDYWGQGTTVTVSS VL: DIVLTQSPASLAVSPGQRATITCKASQSVDFEGDNYMNWYQQKPGQPPKLLIYATSNLDSGVPARFSGSGSGTDFTLTINPVEAEDTANYYCQQSVEDPHTFGGGTKVEIK",–,1.89e-05 s⁻¹,0.0019 s⁻¹
"8H8 (scFv, V domains shown, Combination mutant scFv) VH: QVQLVQSGAEVKKPGSSVKVSCKASGYTFTDHIIHWMRQAPGQGLEWMGYIYPREGWTNYNENFKGRVTITADKSTSTAYMELSSLRSEDTAVYYCARERNLEYFDYWGQGTTVTVSS VL: DIVLTQSPASLAVSPGQRATITCKASQSVDYEGFNYMNWYQQKPGQPPKLLIYATSNLDSGVPARFSGSGSGTDFTLTINPVEAEDTANYYCQQSLEDPHTFGGGTKVEIK",–,2.69e-05 s⁻¹,0.000927 s⁻¹
"18F5 (scFv, V domains shown, Combination mutant scFv) VH: QVQLVQSGAEVKKPGSSVKVSCKASGYTFTDHIIHWMRQAPGQGLEWMGYIYPREGFTNYNENFKGRVTITADKSTSTAYMELSSLRSEDTAVYYCARERNLEYFDYWGQGTTVTVSS VL: DIVLTQSPASLAVSPGQRATITCKASQSVDFEGFNYMNWYQQKPGQPPKLLIYAASNLDSGVPARFSGSGSGTDFTLTINPVEAEDTANYYCQQSVEDPHTFGGGTKVEIK",~8 nM,3.03e-05 s⁻¹,0.000319 s⁻¹
"16C2 (scFv, V domains shown, Combination mutant scFv) VH: QVQLVQSGAEVKKPGSSVKVSCKASGYTFTDHIIHWMRQAPGQGLEWMGYIYPREGWTNYNENFKGRVTITADKSTSTAYMELSSLRSEDTAVYYCARERNLEYFDYWGQGTTVTVSS VL: DIVLTQSPASLAVSPGQRATITCKASQSVDYEGFNYMNWYQQKPGQPPKLLIYATSNLDSGVPARFSGSGSGTDFTLTINPVEAEDTANYYCQQSVEDPHTFGGGTKVEIK",–,2.58e-05 s⁻¹,0.00176 s⁻¹
"2H8E10 (scFv, V domains shown, Combination mutant scFv) VH: QVQLVQSGAEVKKPGSSVKVSCKASGYTFTDHIIHWMRQAPGQGLEWMGYIYPREGWTNYNENFKGRVTITADKSTSTAYMELSSLRSEDTAVYYCARERNLEYFDYWGQGTTVTVSS VL: DIVLTQSPASLAVSPGQRATITCKASQSVDYEGDNYMNWYQQKPGQPPKLLIYAASNLDSGVPARFSGSGSGTDFTLTINPVEAEDTANYYCQQSNEDPHTFGGGTKVEIK",–,1.82e-05 s⁻¹,0.00258 s⁻¹
"11A11 (scFv, V domains shown, Combination mutant scFv) VH: QVQLVQSGAEVKKPGSSVKVSCKASGYTFTDHIIHWMRQAPGQGLEWMGYIYPREGWTNYNENFKGRVTITADKSTSTAYMELSSLRSEDTAVYYCARERNLEYFDYWGQGTTVTVSS VL: DIVLTQSPASLAVSPGQRATITCKASQSVDFEGFNYMNWYQQKPGQPPKLLIYATSNLDSGVPARFSGSGSGTDFTLTINPVEAEDTANYYCQQSVEDPHTFGGGTKVEIK",–,< 1e-05 s⁻¹,0.000786 s⁻¹
"10F5 (scFv, V domains shown, Combination mutant scFv) VH: QVQLVQSGAEVKKPGSSVKVSCKASGYTFTDHIIHWMRQAPGQGLEWMGYIYPREGWTNYNENFKGRVTITADKSTSTAYMELSSLRSEDTAVYYCARERNLEYFDYWGQGTTVTVSS VL: DIVLTQSPASLAVSPGQRATITCKASQSVDYEGDNYMNWYQQKPGQPPKLLIYATSNLDSGVPARFSGSGSGTDFTLTINPVEAEDTANYYCQQSLEDPHTFGGGTKVEIK",–,< 1e-05 s⁻¹,0.00202 s⁻¹
"8C1 (scFv, V domains shown, Combination mutant scFv) VH: QVQLVQSGAEVKKPGSSVKVSCKASGYTFTDHIIHWMRQAPGQGLEWMGYIYPREGWTNYNENFKGRVTITADKSTSTAYMELSSLRSEDTAVYYCARERNLEYFDYWGQGTTVTVSS VL: DIVLTQSPASLAVSPGQRATITCKASQSVDFEGFNYMNWYQQKPGQPPKLLIYAASNLDSGVPARFSGSGSGTDFTLTINPVEAEDTANYYCQQSLEDPHTFGGGTKVEIK",–,< 1e-05 s⁻¹,0.000481 s⁻¹
"13B9 (scFv, V domains shown, Combination mutant scFv) VH: QVQLVQSGAEVKKPGSSVKVSCKASGYTFTDHIIHWMRQAPGQGLEWMGYIYPREGWTNYNENFKGRVTITADKSTSTAYMELSSLRSEDTAVYYCARERNLEYFDYWGQGTTVTVSS VL: DIVLTQSPASLAVSPGQRATITCKASQSVDFEGFNYMNWYQQKPGQPPKLLIYAASNLDSGVPARFSGSGSGTDFTLTINPVEAEDTANYYCQQSNEDPHTFGGGTKVEIK",~10 nM,2.2e-05 s⁻¹,0.000327 s⁻¹
"16D10 scFv (scFv, V domains shown) VH: QVQLVQSGAEVKKPGSSVKVSCKASGYTFTDHIIHWMRQAPGQGLEWMGYIYPREGWTNYNENFKGRVTITADKSTSTAYMELSSLRSEDTAVYYCARERNLEYFDYWGQGTTVTVSS VL: DIVLTQSPASLAVSPGQRATITCKASQSVDYEGFNYMNWYQQKPGQPPKLLIYAASNLDSGVPARFSGSGSGTDFTLTINPVEAEDTANYYCQQSNEDPYTFGGGTKVEIK",~20 nM,2.34e-05 s⁻¹,0.000465 s⁻¹
"16F10 (scFv, V domains shown, Combination mutant scFv) VH: QVQLVQSGAEVKKPGSSVKVSCKASGYTFTDHIIHWMRQAPGQGLEWMGYIYPREGWTNYNENFKGRVTITADKSTSTAYMELSSLRSEDTAVYYCARERNLEYFDYWGQGTTVTVSS VL: DIVLTQSPASLAVSPGQRATITCKASQSVDFEGFNYMNWYQQKPGQPPKLLIYAASNLDSGVPARFSGSGSGTDFTLTINPVEAEDTANYYCQQSVEDPHTFGGGTKVEIK",~4 nM,1.14e-05 s⁻¹,0.000155 s⁻¹
"5G11 (scFv, V domains shown, Combination mutant scFv) VH: QVQLVQSGAEVKKPGSSVKVSCKASGYTFTDHIIHWMRQAPGQGLEWMGYIYPREGWTNYNENFKGRVTITADKSTSTAYMELSSLRSEDTAVYYCARERNLEYFDYWGQGTTVTVSS VL: DIVLTQSPASLAVSPGQRATITCKASQSVDYEGFNYMNWYQQKPGQPPKLLIYAASNLDSGVPARFSGSGSGTDFTLTINPVEAEDTANYYCQQSLEDPHTFGGGTKVEIK",–,< 1e-05 s⁻¹,0.000279 s⁻¹
"19D2 (scFv, V domains shown, Combination mutant scFv) VH: QVQLVQSGAEVKKPGSSVKVSCKASGYTFTDHIIHWMRQAPGQGLEWMGYIYPREGWTNYNENFKGRVTITADKSTSTAYMELSSLRSEDTAVYYCARERNLEYFDYWGQGTTVTVSS VL: DIVLTQSPASLAVSPGQRATITCKASQSVDFEGDNYMNWYQQKPGQPPKLLIYATSNLDSGVPARFSGSGSGTDFTLTINPVEAEDTANYYCQQSLEDPHTFGGGTKVEIK",–,< 1e-05 s⁻¹,0.00102 s⁻¹
"18D3 (scFv, V domains shown, Combination mutant scFv) VH: QVQLVQSGAEVKKPGSSVKVSCKASGYTFTDHIIHWMRQAPGQGLEWMGYIYPREGWTNYNENFKGRVTITADKSTSTAYMELSSLRSEDTAVYYCARERNLEYFDYWGQGTTVTVSS VL: DIVLTQSPASLAVSPGQRATITCKASQSVDYEGDNYMNWYQQKPGQPPKLLIYATSNLDSGVPARFSGSGSGTDFTLTINPVEAEDTANYYCQQSVEDPHTFGGGTKVEIK",–,2.98e-05 s⁻¹,0.00418 s⁻¹
